B1: Glutamate receptor ionotropic, kainate 2 (Rattus norvegicus (Rat)), P42260 (parent)
chain: MKIISPVLSNLVFSRSIKVLLCLLWIGYSQGTTHVLRFGGIFEYVESGPMGAEELAFRFAVNTINRNRTLLPNTTLTYDTQKINLYDSFEASKKACDQLSLGVAAIFGPSHSSSANAVQSICNALGVPHIQTRWKHQVSDNKDSFYVSLYPDFSSLSRAILDLVQFFKWKTVTVVYDDSTGLIRLQELIKAPSRYNLRLKIRQLPADTKDAKPLLKEMKRGKEFHVIFDCSHEMAAGILKQALAMGMMTEYYHYIFTTLDLFALDVEPYRYSGVNMTGFRILNTENTQVSSIIEKWSMERLQAPPKPDSGLLDGFMTTDAALMYDAVHVVSVAVQQFPQMTVSSLQCNRHKPWRFGTRFMSLIKEAHWEGLTGRITFNKTNGLRTDFDLDVISLKEEGLEKIGTWDPASGLNMTESQKGKPANITDSLSNRSLIVTTILEEPYVLFKKSDKPLYGNDRFEGYCIDLLRELSTILGFTYEIRLVEDGKYGAQDDVNGQWNGMVRELIDHKADLAVAPLAITYVREKVIDFSKPFMTLGISILYRKPNGTNPGVFSFLNPLSPDIWMYILLAYLGVSCVLFVIARFSPYEWYNPHPCNPDSDVVENNFTLLNSFWFGVGALMQQGSELMPKALSTRIVGGIWWFFTLIIISSYTANLAAFLTVERMESPIDSADDLAKQTKIEYGAVEDGATMTFFKKSKISTYDKMWAFMSSRRQSVLVKSNEEGIQRVLTSDYAFLMESTTIEFVTQRNCNLTQIGGLIDSKGYGVGTPMGSPYRDKITIAILQLQEEGKLHMMKEKWWRGNGCPEEESKEASALGVQNIGGIFIVLAAGLVLSVFVAVGEFLYKSKKNAQLEKRSFCSAMVEELRMSLKCQRRLKHKPQAPVIVKTEEVINMHTFNDRRLPGKETMA

This experiment covers variants of B1. The settings on record: with MAP3K11, Q16584.
Sequence of MAP3K11, Q16584 (Q16584 whole entry, looked up): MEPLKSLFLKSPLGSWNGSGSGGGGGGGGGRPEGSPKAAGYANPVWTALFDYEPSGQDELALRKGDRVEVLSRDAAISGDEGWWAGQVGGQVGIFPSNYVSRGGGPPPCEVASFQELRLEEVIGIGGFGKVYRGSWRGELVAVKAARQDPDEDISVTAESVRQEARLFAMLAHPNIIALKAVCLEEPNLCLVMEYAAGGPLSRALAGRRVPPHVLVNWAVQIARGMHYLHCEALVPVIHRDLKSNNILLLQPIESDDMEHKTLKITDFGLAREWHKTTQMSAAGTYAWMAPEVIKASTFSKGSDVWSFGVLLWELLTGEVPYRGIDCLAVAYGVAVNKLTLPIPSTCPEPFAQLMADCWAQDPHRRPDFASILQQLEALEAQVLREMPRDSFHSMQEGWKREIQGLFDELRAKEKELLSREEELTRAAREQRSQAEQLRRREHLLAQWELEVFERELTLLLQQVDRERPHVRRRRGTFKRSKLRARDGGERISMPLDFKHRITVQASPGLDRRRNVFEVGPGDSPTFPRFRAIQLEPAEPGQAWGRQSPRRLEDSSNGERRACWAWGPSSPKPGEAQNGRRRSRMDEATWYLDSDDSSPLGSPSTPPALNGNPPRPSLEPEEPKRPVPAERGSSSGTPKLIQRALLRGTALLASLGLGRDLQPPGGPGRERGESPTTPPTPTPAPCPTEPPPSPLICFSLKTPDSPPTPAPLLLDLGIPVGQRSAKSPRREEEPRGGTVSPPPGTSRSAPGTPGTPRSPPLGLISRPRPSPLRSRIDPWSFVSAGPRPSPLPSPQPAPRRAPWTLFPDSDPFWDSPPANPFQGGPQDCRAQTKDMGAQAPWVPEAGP
Take K886R: the “effect of a mutation on the interaction” value is given as “decreasing interaction”.

The values above are taken from IntAct's records for PubMed 22483987.
